Data as given in patent US20140087995A1 (published 2014).
Numbered stars: 1 amine (or outer) side, 2 acyl side, 3 side chain; on linkers, the order of the positions; unused ones are H or OH. Bridge positions count the residues as written; N and C are the ends. Side chains are listed from the residue outwards. Ends that are not written are not given here. * marks the point of attachment. C20 diacid = O=C(O)CCCCCCCCCCCCCCCCCCC(=O)*; γGlu = O=C(O)[C@H](CCC(=O)[*:2])N[*:1]

T1: human amylin receptor (amylin 3(a) receptor: human calcitonin receptor coexpressed with RAMP-3) (human, UniProt P30988 25-474; O60896 24-148)
T1 construct: whole, on cells; the functional assay (Assay II a) on whole cells; the complex is called human; also called hAmylin-R; hAmylinR
T1 sequence (looked up) 1: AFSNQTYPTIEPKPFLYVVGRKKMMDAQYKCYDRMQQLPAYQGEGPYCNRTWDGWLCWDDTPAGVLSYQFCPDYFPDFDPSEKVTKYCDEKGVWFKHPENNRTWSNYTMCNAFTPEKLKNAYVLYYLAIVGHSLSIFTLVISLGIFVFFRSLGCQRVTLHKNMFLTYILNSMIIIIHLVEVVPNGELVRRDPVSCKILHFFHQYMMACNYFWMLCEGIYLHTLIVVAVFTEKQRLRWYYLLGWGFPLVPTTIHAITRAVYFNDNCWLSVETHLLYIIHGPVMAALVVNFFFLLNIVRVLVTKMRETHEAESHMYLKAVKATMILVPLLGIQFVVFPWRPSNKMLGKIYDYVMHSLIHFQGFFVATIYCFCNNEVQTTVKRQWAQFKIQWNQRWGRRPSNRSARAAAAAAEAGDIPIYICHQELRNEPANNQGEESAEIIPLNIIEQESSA
T1 sequence (looked up) 2: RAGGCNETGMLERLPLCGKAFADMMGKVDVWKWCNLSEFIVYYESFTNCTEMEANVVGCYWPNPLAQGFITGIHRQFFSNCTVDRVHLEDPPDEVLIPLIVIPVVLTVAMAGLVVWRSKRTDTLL

T2: human calcitonin receptor (human, UniProt P30988 25-474)
T2 sequence (looked up): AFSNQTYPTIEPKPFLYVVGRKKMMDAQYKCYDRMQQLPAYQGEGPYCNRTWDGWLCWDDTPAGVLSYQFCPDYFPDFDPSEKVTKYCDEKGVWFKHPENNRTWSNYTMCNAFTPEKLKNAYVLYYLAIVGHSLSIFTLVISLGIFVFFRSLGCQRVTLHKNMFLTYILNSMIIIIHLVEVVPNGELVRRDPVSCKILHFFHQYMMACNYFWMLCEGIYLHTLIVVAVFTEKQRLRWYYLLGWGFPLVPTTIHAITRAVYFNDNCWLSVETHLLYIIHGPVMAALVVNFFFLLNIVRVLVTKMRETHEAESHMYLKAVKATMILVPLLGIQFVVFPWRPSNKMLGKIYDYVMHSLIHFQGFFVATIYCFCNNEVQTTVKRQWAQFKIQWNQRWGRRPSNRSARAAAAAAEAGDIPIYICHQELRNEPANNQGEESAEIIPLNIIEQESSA

B1: N^ε1-[(4S)-4-carboxy-4-[[(4S)-4-carboxy-4-(19-carboxynonadecanoylamino)butanoyl]amino]butanoyl]-[Glu14,Arg17,Pro21,Pro27,Arg34,Glu35]-h-amylin (peptide)
peptide: K([γGlu-γGlu-C20 diacid])CNTATCATQRLAEFLRHSSPNFGAIPSSTNVGRETY-NH2
modifications: disulfide 2-7; N-terminus assumed
SMILES: CC[C@H](C)[C@H](NC(=O)[C@H](C)NC(=O)CNC(=O)[C@H](Cc1ccccc1)NC(=O)[C@H](CC(N)=O)NC(=O)[C@@H]1CCCN1C(=O)[C@H](CO)NC(=O)[C@H](CO)NC(=O)[C@H](Cc1c[nH]cn1)NC(=O)[C@H](CCCNC(=N)N)NC(=O)[C@H](CC(C)C)NC(=O)[C@H](Cc1ccccc1)NC(=O)[C@H](CCC(=O)O)NC(=O)[C@H](C)NC(=O)[C@H](CC(C)C)NC(=O)[C@H](CCCNC(=N)N)NC(=O)[C@H](CCC(N)=O)NC(=O)[C@@H](NC(=O)[C@H](C)NC(=O)[C@@H]1CSSC[C@H](NC(=O)[C@@H](N)CCCCNC(=O)CC[C@H](NC(=O)CC[C@H](NC(=O)CCCCCCCCCCCCCCCCCCC(=O)O)C(=O)O)C(=O)O)C(=O)N[C@@H](CC(N)=O)C(=O)N[C@@H]([C@@H](C)O)C(=O)N[C@@H](C)C(=O)N[C@@H]([C@@H](C)O)C(=O)N1)[C@@H](C)O)C(=O)N1CCC[C@H]1C(=O)N[C@@H](CO)C(=O)N[C@@H](CO)C(=O)N[C@H](C(=O)N[C@@H](CC(N)=O)C(=O)N[C@H](C(=O)NCC(=O)N[C@@H](CCCNC(=N)N)C(=O)N[C@@H](CCC(=O)O)C(=O)N[C@H](C(=O)N[C@@H](Cc1ccc(O)cc1)C(N)=O)[C@@H](C)O)C(C)C)[C@@H](C)O
B2: N^ε1-[(4S)-4-carboxy-4-[[(4S)-4-carboxy-4-(19-carboxynonadecanoylamino)butanoyl]amino]butanoyl]-[Glu14,Arg17,Pro21,Pro27,Pro34,Glu35]-h-amylin (peptide)
peptide: K([γGlu-γGlu-C20 diacid])CNTATCATQRLAEFLRHSSPNFGAIPSSTNVGPETY-NH2
modifications: disulfide 2-7; N-terminus assumed
SMILES: CC[C@H](C)[C@H](NC(=O)[C@H](C)NC(=O)CNC(=O)[C@H](Cc1ccccc1)NC(=O)[C@H](CC(N)=O)NC(=O)[C@@H]1CCCN1C(=O)[C@H](CO)NC(=O)[C@H](CO)NC(=O)[C@H](Cc1c[nH]cn1)NC(=O)[C@H](CCCNC(=N)N)NC(=O)[C@H](CC(C)C)NC(=O)[C@H](Cc1ccccc1)NC(=O)[C@H](CCC(=O)O)NC(=O)[C@H](C)NC(=O)[C@H](CC(C)C)NC(=O)[C@H](CCCNC(=N)N)NC(=O)[C@H](CCC(N)=O)NC(=O)[C@@H](NC(=O)[C@H](C)NC(=O)[C@@H]1CSSC[C@H](NC(=O)[C@@H](N)CCCCNC(=O)CC[C@H](NC(=O)CC[C@H](NC(=O)CCCCCCCCCCCCCCCCCCC(=O)O)C(=O)O)C(=O)O)C(=O)N[C@@H](CC(N)=O)C(=O)N[C@@H]([C@@H](C)O)C(=O)N[C@@H](C)C(=O)N[C@@H]([C@@H](C)O)C(=O)N1)[C@@H](C)O)C(=O)N1CCC[C@H]1C(=O)N[C@@H](CO)C(=O)N[C@@H](CO)C(=O)N[C@H](C(=O)N[C@@H](CC(N)=O)C(=O)N[C@H](C(=O)NCC(=O)N1CCC[C@H]1C(=O)N[C@@H](CCC(=O)O)C(=O)N[C@H](C(=O)N[C@@H](Cc1ccc(O)cc1)C(N)=O)[C@@H](C)O)C(C)C)[C@@H](C)O

Columns and labels:
[1] = biological target: T1, human amylin receptor (amylin 3(a) …); assay: SPA competition against 125I-rat amylin, membranes of BHK amylin 3(a)/CRE-luc cells (Assay V)
Procedure: The binding assay was performed using scintillation proximity assay (SPA) beads (RPNQ0001) from PerkinElmer and cell membranes from the Amylin 3(a)/CRE-luc cells (as described in Assay (II)) were used. Membranes were prepared in the following way; the cells were rinsed with PBS and incubated with Versene for approximately 5 min before harvesting. The cells were flushed with PBS and the cell-suspension was centrifuged for 5 min at 1000 rpm. Cells were homogenized (ultrathurrax) in a buffer containing 20 mM Na-HEPES and 10 mM EDTA (pH 7.4) and centrifuged at 20.000 rpm for 15 min. The resulting pellet was resuspended, homogenized and centrifuged (20.000 rpm, 15 min) in a buffer containing 20 mM Na-HEPES and 0.1 mM EDTA (pH 7.4, buffer 2). The resulting pellet was resuspended in buffer 2 and protein concentration was measured (BCA protein Assay, Pierce). The homogenate was kept cold during the whole procedure. The membranes were kept at −80° C. until use. The assay was performed in a 384 well Optiplate (PerkinElmer) in a total volume of 40 ul. Membranes were mixed with SPA beads. Final concentration of membranes 35 ng/μL final and SPA beads was 0.05 mg/well. Test-compounds were dissolved in DMSO and further diluted in assay buffer (50 mM Hepes, pH 7.4, 1 mM CaCl2, 5 mM MgCl₂, 0.1% OA and 0.02% Tween20). […] The final mixture was incubated with shaking at 400 rpm for 120 min at 25° C. prior to centrifugation (1500 rpm, 10 min). Samples were analyzed on TopCounter™ (Packard). The IC₅₀ was calculated using (one site binding competition analysis) GraphPad Prism5 as a measure of receptor affinity.

[2] = biological target: T1, human amylin receptor (amylin 3(a) …); assay: cell-based or functional assay
[3] = biological target: T2, human calcitonin receptor; assay: cell-based or functional assay

Binder | IC50 [1] [nM] | hAmylin-R funct. EC50 (pM) [2] [pM] | Ratio hCT/hAmylin funct. [3] | hCTR funct. EC50 (pM) [3] [pM]
B1 | 0.957 | 703 | 10.6 | 7430
B2 | 0.121 | 225 | 10.5 | 2360
K([γGlu-γGlu-C20 diacid])CNTATCATQRLAEFLRHSSNNPGAILSSTNVGPETY-NH2 (disulfide 2-7) | 1.19 | 5170 | 17.3 | 89600
